The target of series [1] is biotinylated phosphorylated cyclin E degron peptide. The experiment in a line: ALPHAscreen, 384-well LOPAC screen; 25 nM FBW7 and 25 nM cyclin E phosphopeptide.
Series [2] shares this target. The series can be described thus: ALPHAscreen, 1536-well primary screen, n=518 plates. (Bead proximity is the source of the signal in Alpha formats.)
For series [3] the target is unchanged. The experiment in a line: ALPHAscreen, 384-well; His-FBW7 on Ni-chelate acceptor beads, biotin-peptide on streptavidin donor beads.
Series [4] has as its system cyclin E (substrate of the in vitro ubiquitylation assay).

As to “wild-type F-box/WD repeat-containing protein 7 (FBW7), recombinant dimeric Skp1-FBW7 complex (from UniProt P63208 1-163) (enzyme)”, in series [1], the S:B ratio (wt-FBW7 high control versus mutant FBW7 low control, both with cyclin E phosphopeptide) is 14.6. The same substance returned a signal-to-background (S:B) (Wt-FBW7+pCycE-peptide high control versus Wt-FBW7+unphosphorylated CycE peptide low control) in series [2] of 69.3. In addition, the fold ALPHA signal, phosphorylated versus unphosphorylated cyclin E degron peptide in series [3] amounted to 100 fold.

Regarding “wild-type F-box/WD repeat-containing protein 7 (FBW7), recombinant dimeric Skp1-FBW7 complex”, the “reconstituted in vitro Cyclin E polyubiquitylation assay” value in series [4] was “wt-FBW7 was highly active”.

On to “mutant FBW7 R505L (FBW7^ARG), recombinant dimeric Skp1-FBW7 complex”, for which the “reconstituted in vitro Cyclin E polyubiquitylation assay” value in series [4] was “FBW7^ARG was inactive”.

For the origin of these results see patent publication US20210041439A1.
